The text below walks through data of patent publication US20260256879A1, “COMBINATION THERAPY WITH MEK INHIBITORS FOR THE TREATMENT OF CANCER” (FUNDACIÓ PRIVADA INSTITUT D'INVESTIGACIÓ ONCOLÒGICA DE VALL …, priority 2023, published 2026).

For this experiment, the system named is SkMel28 cells. The experiment is described as follows: AlamarBlue cell viability, 5 days of treatment, alone or in combination; synergy by SynergyFinder 3.0 (ZIP). The experiment is classed as cell-based, human. Conditions: SkMel28, 5 days, FIG. 1A. As for the experimental part:
Omomyc in Combination with MEK Inhibitors Acts Synergistically in Decreasing the Viability of Melanoma Cancer Cells Two human melanoma cell lines with mutations in BRAF (BRAF^V600E) (SkMel28 and SkMel37) were used. Cells were plated in 96 well plates and treated on the following day with increasing concentrations of Trametinib and Omomyc, alone or in combination. After 5 days of treatment, media was removed and AlamarBlue™ Cell Viability Reagent was added to each well, incubated for 3 hours until metabolized, and fluorescence was read with a microplate reader using an excitation between 530-560 and an emission at 590 nm.
Synergy was evaluated using SynergyFinder 3.0 web application derived from Ianevsky A et al. Nucleic Acids Res. 2022; 50(W1):W739-W743.
Synergy scores can be interpreted as the average excess response due to drug interactions. Synergy scores close to 0 give limited confidence in synergy or antagonism. So, when the synergy scores are: less than −10, the interaction between two drugs is likely to be antagonistic. From −10 to 10, the interaction between two drugs is likely to be additive. Greater than 10, the interaction between two drugs is likely to be synergistic.

B1: Omomyc: Mutated bHLHZip domain of Myc (E61T, E68I, R74Q, R75N); tested polypeptide is SEQ ID NO: 4, N-terminal methionine, produced in E. coli (protein)
chain: MTEENVKRRTHNVLERQRRNELKRSFFALRDQIPELENNEKAPKVVILKKATAYILSVQAETQKLISEIDLLRKQNEQLKHKLEQLRNSCA
modifications: N-terminal methionine
On to B1, for which the “effect of single agent on viability of the cells” value was “reduces the viability”.
